B1: SWI/SNF-related matrix-associated actin-dependent regulator of chromatin subfamily B member 1, residues 181 to 248; numbered along this chain, Q12824 (parent)
chain: SQPEVLVPIRLDMEIDGQKLRDAFTWNMNEKLMTPEMFSEILCDDLDLNPLTFVPAIASAIRQQIESY

Variants of: B1
Test: abundance fitness (aPCA) (normalised: wild type 0, dead -1); higher = more abundant; growth selection in yeast, the domain comes from the species named
Details: Homo sapiens

Abundance fitness: each site, then its substitutions
R21: Y -0.227 | F -0.17 | N 0.098 | M -0.073 | E -0.026 | C 0.096 | L -0.204 | H 0.164 | W -0.368 | A -0.076 | S -0.054 | I 0.081 | V 0.115 | D 0.133 | T 0.009 | K 0.011 | P -0.357
L11: A -0.792 | V -0.624 | P -0.578 | T -0.057 | F -0.215 | C -0.848 | S -0.751
L20: A -0.671 | F -0.011 | S -0.603 | E -0.94 | C -0.319 | M -0.655 | P -0.622 | I -0.013 | G -0.677 | H -0.525 | V -0.01 | R -0.501 | N -0.788 | K -0.598
W26: A -1 | T -0.854 | R -0.498 | E -0.628 | M -0.566 | C -0.673 | Q -0.879
A23: L -0.387 | Y -0.147 | I -0.076 | M 0.048 | Q 0.09 | V 0.116 | T 0.155 | F -0.039 | G -0.291 | P -0.599 | K 0.102 | D 0.211 | E 0.221 | S 0.089 | W -0.144
Q18: S -0.425 | A -0.311 | G -1.01 | V 0.107 | K -0.234 | T -0.347 | R -0.276 | W 0.158 | H -0.136 | L -0.297 | P -0.93
V5: L -0.009 | S -0.174 | H 0.505 | T 0.213 | E -0.103 | F -0.079 | D 0.045 | Y -0.096 | K -0.051 | C 0.116 | W -0.312 | P -0.366 | A -0.086 | G -0.302 | I -0.438 | Q 0.184 | M -0.107 | R -0.205
D22: Q 0.052 | G -0.418 | T 0.28 | R 0.284 | H 0.385 | L 0.001 | S -0.21 | C 0.035 | V -0.037 | M -0.277 | N 0.005 | W 0.293
Q2: F 0.392 | P -0.079 | H -0.266
V7: I -0.049 | K -0.906 | A -0.65 | L -0.322 | F -0.547 | R -0.998 | G -0.873 | T -0.77 | P -0.753 | E -0.868 | W -1 | M -0.646 | C -0.293 | Q -0.937 | D -0.749 | S -0.866
F24: M -0.71 | K -0.941 | H -0.991 | D -0.451 | P -0.866 | E -0.763 | N -0.964 | S -0.822 | A -0.974 | C -0.702 | V -0.331 | I -0.156 | T -0.746 | Q -1.06 | W -0.293 | G -0.884
G17: T -0.896 | S -0.769 | M -1.07 | H -0.66 | K -0.365 | D -0.745 | R -0.713 | W -0.897 | P -0.927 | V -1 | E -0.931 | A -0.867 | C -0.545 | N -0.714
T25: D 0.021 | W -0.228 | P -0.314 | C -0.08 | S -0.173 | A -0.172 | K -0.125 | F 0.311 | V -0.048 | M 0.092 | R -0.451 | Y -0.326 | H -0.065 | G -0.544 | L -0.134 | Q -0.121
P8: N -0.286 | Q -0.072 | C -0.736 | T -0.177 | I -0.523 | F -0.506 | R -0.352 | L -0.512 | G -0.875 | M -0.355 | V -0.315 | Y -0.55 | A -0.676 | S -0.405 | H -0.641 | E -0.197
D12: F -0.73 | S -0.474 | V -0.646 | G -0.264 | E -0.078
K19: A -0.32 | C 0.128 | W -0.7
L6: M 0.141 | V -0.221 | F -0.236 | H -0.212 | S 0.036 | R -0.078 | T -0.126 | G -0.217 | A -0.219 | I -0.03 | Q -0.217 | W -0.152 | Y -0.346
I15: S -0.934 | E -0.765 | F -0.282 | L 0.01 | A -0.917 | R -0.722 | M -0.667 | C -0.702 | Y 0.116 | K -0.982 | V -0.516 | G -0.97 | H -0.625
E14: K -0.334 | H -0.202 | R -0.733 | Y -0.633 | L -0.299 | M -0.065 | W -0.96 | P -0.937 | D 0.026 | S -0.071 | G -0.819 | V -0.199
P3: R 0.161 | I -0.245 | M 0.006 | H -0.097 | S 0.129 | W -0.186 | Y 0.002 | D 0.266 | A 0.02 | K 0.289 | T 0.063 | C -0.297 | V -0.146 | F 0.05 | N 0.214 | L 0.003 | Q 0.178
E4: G -0.354 | Q -0.182 | D -0.031 | C -0.32 | V 0.047 | I -0.495 | R -0.234 | M -0.201 | F -0.294 | A -0.166 | T -0.281 | W -0.599 | P -0.024 | S -0.331 | L -0.292
I9: E -0.904 | L -0.989 | H -0.89 | R -1.03 | P -0.094 | S -1.05 | A -0.784 | F -0.791 | Q -0.868 | N -0.742 | D -0.74 | G -0.762 | T -0.701
M13: D -0.944 | W -0.606 | R -0.703 | Q -0.717 | T -0.638 | I -0.149 | G -0.718 | V -0.214 | L -0.089
R10: T 0.135 | P -0.386 | S -0.444 | Y 0.138 | N -0.03 | M -0.273 | E 0.065 | W -0.196 | Q 0.076 | V -0.024 | L -0.193
N27: A -0.754 | C -0.923 | D 0.165 | G -0.622 | E -0.822 | P -0.512 | Q -0.685 | M -0.988 | H -0.723
S1: W -0.435 | E 0.194 | A -0.151 | T -0.09 | L -0.021 | Y 0.088 | C -0.095 | I 0.238 | G -0.061 | F -0.132 | M 0.127 | R -0.307 | V -0.048 | D -0.123 | K 0.167 | P -0.109
D16: W -0.822 | R -0.415 | N -0.312 | G -0.027 | V -1.02 | H -0.247 | K -0.498 | Q -0.168 | I -0.861 | A -0.161 | E -0.042 | T -0.801 | S -0.39 | Y -0.546 | F -0.928 | L -0.5

Reference: the Human Domainome abundance scans (Beltran et al. 2025)
